Patent publication US20110054149A1 (published 2011)
Where a chain is given by its changes, count along the chain named.

T1: GST-human NOGO-A56 (human, UniProt Q9NQC3 586-785)
T1 construct: also called hNOGO; recombinant human NOGO; not shown: Glutathione S-transferase (GST) tag encoded by vector pGEX-6P1, N-terminal to the NOGO-A fragment; the tag and linker se
T1 sequence: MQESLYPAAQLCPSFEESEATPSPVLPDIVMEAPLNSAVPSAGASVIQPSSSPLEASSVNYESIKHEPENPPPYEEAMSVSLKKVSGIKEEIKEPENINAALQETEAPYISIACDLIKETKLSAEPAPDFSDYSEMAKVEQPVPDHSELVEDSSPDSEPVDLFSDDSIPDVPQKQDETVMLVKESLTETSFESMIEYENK

B1: H10L13 (antibody, V domains shown)
VH: QVQLVQSGAEVKKPGASVKLSCKASGYTFTSYWMHWVKQAPGQGLEWIGNINPSNGGTNYNEKFKSRATLTVDKSTSTAYMELSSLRSEDTAVYYCELGQGYWGQGTLVTVSS
VL: DIVMTQSPLSLPVTLGQPASISCRSSKSLLYKDGKTYLNWFQQRPGQSPQLLIYLMSTRASGVPDRFSGGGSGTDFTLKISRVEAEDVGVYYCQQLVEYPLTFGQGTKLEIK
B2: H5L6 (antibody, human IgG1, kappa, V domains shown)
VH: B1 VH with L20V, K38R, I48M, A68V, L70M, V72R, K74T
VL: DIVMTQSPLSLPVTPGEPASISCRSSKSLLYKDGKTYLNWFLQRPGQSPQLLIYLMSTRASGVPDRFSGSGSGTDFTLKISRVEAEDVGVYYCQQLVEYPLTFGGGTKVEIKR
notes: Humanised 2A10; human gamma-1 mutated constant region, human kappa
B3: H700L11 (antibody, human IgG1, kappa, V domains shown)
VH: B1 VH with L20V, K38R
VL: B2 VL with M4I, P15L, E17Q, L42Q, S70G, G105Q, V109L
notes: as for B2
B4: H6L6 (antibody, human IgG1, kappa, V domains shown)
VH: B1 VH with L20V, K38R, L70M, V72R, K74T
VL: B2 VL
notes: as for B2
B5: HcL13 (antibody, human IgG1, kappa)
heavy: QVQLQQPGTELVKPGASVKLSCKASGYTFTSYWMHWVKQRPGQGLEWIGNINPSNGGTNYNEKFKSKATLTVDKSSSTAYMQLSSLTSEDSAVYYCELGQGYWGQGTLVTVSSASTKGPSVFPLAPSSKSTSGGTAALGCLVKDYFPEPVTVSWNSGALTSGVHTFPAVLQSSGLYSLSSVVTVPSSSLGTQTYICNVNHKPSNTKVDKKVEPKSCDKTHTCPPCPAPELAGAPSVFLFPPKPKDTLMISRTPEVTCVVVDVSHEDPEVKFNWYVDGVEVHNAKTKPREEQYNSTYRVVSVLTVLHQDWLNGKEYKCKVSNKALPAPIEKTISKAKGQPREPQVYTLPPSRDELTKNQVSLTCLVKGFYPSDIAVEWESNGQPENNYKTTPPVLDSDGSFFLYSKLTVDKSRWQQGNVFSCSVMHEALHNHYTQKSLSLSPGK
light: DIVMTQSPLSLPVTLGQPASISCRSSKSLLYKDGKTYLNWFQQRPGQSPQLLIYLMSTRASGVPDRFSGGGSGTDFTLKISRVEAEDVGVYYCQQLVEYPLTFGQGTKLEIKRTVAAPSVFIFPPSDEQLKSGTASVVCLLNNFYPREAKVQWKVDNALQSGNSQESVTEQDSKDSTYSLSSTLTLSKADYEKHKVYACEVTHQGLSSPVTKSFNRGEC
notes: Chimeric heavy chain Hc paired with humanised light chain L13
B6: HcL11 (antibody, human IgG1, kappa)
heavy: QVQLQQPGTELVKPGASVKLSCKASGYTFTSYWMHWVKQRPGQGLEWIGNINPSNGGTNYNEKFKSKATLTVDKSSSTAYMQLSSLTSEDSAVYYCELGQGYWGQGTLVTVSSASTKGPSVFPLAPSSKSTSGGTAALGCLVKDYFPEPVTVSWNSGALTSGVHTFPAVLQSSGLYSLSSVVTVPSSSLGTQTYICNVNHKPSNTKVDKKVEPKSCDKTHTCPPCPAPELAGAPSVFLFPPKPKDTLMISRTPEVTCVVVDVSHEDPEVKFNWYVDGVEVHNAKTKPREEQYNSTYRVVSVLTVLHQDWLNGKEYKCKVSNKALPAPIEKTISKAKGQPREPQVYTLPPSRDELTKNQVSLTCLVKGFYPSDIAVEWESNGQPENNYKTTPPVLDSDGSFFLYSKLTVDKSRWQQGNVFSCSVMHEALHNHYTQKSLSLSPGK
light: B5 light with M4I
notes: Chimeric heavy chain Hc paired with humanised light chain L11
B7: H6Lc (antibody, human IgG1, kappa, V domains shown)
VH: B1 VH with L20V, K38R, L70M, V72R, K74T
VL: DIVITQDELSNPVTSGESVSISCRSSKSLLYKDGKTYLNWFLQRPGQSPQLLIYLMSTRASGVSDRFSGSGSGTDFTLEISRVKAEDVGVYYCQQLVEYPLTFGAGTKLELKR
notes: Humanised heavy chain H6 paired with chimeric light chain Lc; For the light chain start see the note on HcLc
B8: H17L16 (antibody, human IgG1, kappa)
heavy: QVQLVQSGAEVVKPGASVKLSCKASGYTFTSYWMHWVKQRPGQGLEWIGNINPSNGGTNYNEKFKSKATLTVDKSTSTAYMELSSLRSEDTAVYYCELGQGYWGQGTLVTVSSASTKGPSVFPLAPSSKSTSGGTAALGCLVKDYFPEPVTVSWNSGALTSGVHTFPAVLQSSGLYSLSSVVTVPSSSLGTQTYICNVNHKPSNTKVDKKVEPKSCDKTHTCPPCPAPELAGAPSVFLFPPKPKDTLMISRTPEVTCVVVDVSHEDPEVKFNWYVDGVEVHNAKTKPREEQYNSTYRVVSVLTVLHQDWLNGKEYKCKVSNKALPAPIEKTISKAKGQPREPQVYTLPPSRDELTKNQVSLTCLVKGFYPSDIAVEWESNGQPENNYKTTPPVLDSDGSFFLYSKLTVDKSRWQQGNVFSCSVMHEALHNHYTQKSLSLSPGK
light: B5 light with L11N, A19V, Q42L
notes: as for B2
B9: H14L13 (antibody, human IgG1, kappa, V domains shown)
VH: B1 VH with K12V, V72R, K74T
VL: B2 VL with P15L, E17Q, L42Q, S70G, G105Q, V109L
notes: Humanised 2A10; tested as CHO-K1 transfection supernatant; Human gamma-1 mutated constant region, human kappa
B10: H16L13 (antibody, human IgG1, kappa)
heavy: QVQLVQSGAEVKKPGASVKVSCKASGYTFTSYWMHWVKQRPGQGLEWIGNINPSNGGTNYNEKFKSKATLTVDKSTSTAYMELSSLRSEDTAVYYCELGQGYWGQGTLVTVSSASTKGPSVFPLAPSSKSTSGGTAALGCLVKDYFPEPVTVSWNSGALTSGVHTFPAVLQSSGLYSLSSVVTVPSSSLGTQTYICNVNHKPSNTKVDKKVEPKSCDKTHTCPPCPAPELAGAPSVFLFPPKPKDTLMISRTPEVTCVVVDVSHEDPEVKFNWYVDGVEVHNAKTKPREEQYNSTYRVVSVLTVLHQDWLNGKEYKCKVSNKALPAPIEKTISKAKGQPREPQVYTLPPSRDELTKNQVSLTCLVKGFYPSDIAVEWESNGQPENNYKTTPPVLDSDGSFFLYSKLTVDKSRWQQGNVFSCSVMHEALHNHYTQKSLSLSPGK
light: B5 light
notes: as for B9
B11: H14L16 (antibody, human IgG1, kappa, V domains shown)
VH: B1 VH with K12V, V72R, K74T
VL: B2 VL with L11N, P15L, E17Q, A19V, S70G, G105Q, V109L
notes: as for B2
B12: H6L18 (antibody, human IgG1, kappa, V domains shown)
VH: B1 VH with L20V, K38R, L70M, V72R, K74T
VL: B2 VL with S7D, L11N, P15L, E17Q, A19V, P64S, G105Q, V109L
notes: as for B9
B13: H17L13 (antibody, human IgG1, kappa)
heavy: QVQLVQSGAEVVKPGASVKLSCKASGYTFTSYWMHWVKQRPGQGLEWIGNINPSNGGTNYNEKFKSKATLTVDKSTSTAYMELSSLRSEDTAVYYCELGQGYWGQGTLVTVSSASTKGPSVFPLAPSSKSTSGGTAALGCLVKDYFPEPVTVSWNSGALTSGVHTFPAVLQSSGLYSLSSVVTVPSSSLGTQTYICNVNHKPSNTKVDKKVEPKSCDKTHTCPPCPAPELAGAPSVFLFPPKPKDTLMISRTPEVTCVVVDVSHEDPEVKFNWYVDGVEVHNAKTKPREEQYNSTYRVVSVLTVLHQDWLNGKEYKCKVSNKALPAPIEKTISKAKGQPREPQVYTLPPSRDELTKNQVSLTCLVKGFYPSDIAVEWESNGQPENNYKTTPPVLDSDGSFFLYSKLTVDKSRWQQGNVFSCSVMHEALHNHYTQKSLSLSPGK
light: B5 light
notes: as for B9
B14: H14L18 (antibody, human IgG1, kappa, V domains shown)
VH: B1 VH with K12V, V72R, K74T
VL: B2 VL with S7D, L11N, P15L, E17Q, A19V, P64S, G105Q, V109L
notes: as for B2
B15: H6L17 (antibody, human IgG1, kappa, V domains shown)
VH: B1 VH with L20V, K38R, L70M, V72R, K74T
VL: B2 VL with S7D, P15L, E17Q, L42Q, P64S, G105Q, V109L
notes: as for B9
B16: H6L14 (antibody, human IgG1, kappa)
heavy: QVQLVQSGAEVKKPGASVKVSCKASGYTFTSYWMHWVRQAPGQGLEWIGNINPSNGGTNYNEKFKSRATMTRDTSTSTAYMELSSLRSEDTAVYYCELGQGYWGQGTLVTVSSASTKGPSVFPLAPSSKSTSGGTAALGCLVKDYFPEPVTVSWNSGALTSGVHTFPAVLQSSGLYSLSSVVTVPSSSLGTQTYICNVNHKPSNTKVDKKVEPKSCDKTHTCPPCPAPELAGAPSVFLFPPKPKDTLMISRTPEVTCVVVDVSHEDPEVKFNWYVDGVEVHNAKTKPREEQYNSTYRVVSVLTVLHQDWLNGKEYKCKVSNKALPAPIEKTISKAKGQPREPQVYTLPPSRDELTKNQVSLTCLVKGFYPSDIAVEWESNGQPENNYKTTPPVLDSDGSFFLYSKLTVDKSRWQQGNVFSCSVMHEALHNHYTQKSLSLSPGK
light: B5 light with Q42L
notes: as for B9
B17: H15L18 (antibody, human IgG1, kappa, V domains shown)
VH: B1 VH with K12V, A40R, R67K, K74T, T76S, T91S
VL: B2 VL with S7D, L11N, P15L, E17Q, A19V, P64S, G105Q, V109L
notes: as for B9
B18: H15L16 (antibody, human IgG1, kappa, V domains shown)
VH: B1 VH with K12V, A40R, R67K, K74T, T76S, T91S
VL: B2 VL with L11N, P15L, E17Q, A19V, S70G, G105Q, V109L
notes: as for B9
B19: H15L13 (antibody, human IgG1, kappa, V domains shown)
VH: B1 VH with K12V, A40R, R67K, K74T, T76S, T91S
VL: B2 VL with P15L, E17Q, L42Q, S70G, G105Q, V109L
notes: as for B9
B20: H6L16 (antibody, human IgG1, kappa)
heavy: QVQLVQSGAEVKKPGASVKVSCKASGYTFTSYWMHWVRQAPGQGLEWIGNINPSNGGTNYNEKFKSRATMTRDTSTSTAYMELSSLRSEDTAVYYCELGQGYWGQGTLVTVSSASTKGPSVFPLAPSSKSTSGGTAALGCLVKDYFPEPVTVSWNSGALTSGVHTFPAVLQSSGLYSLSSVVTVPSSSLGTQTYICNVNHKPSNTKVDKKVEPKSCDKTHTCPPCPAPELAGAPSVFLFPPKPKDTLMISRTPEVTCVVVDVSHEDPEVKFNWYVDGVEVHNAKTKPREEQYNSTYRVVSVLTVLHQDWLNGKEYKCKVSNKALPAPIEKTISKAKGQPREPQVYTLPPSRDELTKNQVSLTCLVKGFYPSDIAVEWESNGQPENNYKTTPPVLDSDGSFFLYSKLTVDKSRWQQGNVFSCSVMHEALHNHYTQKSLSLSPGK
light: B5 light with L11N, A19V, Q42L
notes: as for B9
B21: H18L13 (antibody, human IgG1, kappa, V domains shown)
VH: B1 VH with K12V, A40R, R67K, T76S, T91S
VL: B2 VL with P15L, E17Q, L42Q, S70G, G105Q, V109L
notes: as for B9
B22: H6L15 (antibody, human IgG1, kappa, V domains shown)
VH: B1 VH with L20V, K38R, L70M, V72R, K74T
VL: B2 VL with P15L, E17Q, P64S, S70G, G105Q, V109L
notes: as for B9
B23: H18L18 (antibody, human IgG1, kappa, V domains shown)
VH: B1 VH with K12V, A40R, R67K, T76S, T91S
VL: B2 VL with S7D, L11N, P15L, E17Q, A19V, P64S, G105Q, V109L
notes: as for B9

target: T1, GST-human NOGO-A56; test: SPR (Biacore 3000), GST-human NOGO-A56 on CM5 chip, antibody as analyte; single experiment
Description: (§1) The binding kinetics of the anti-NOGO monoclonal antibody (mAb) to recombinantly expressed human NOGO-A (GST-human NOGO-A56) was analysed using the Biacore3000 biosensor. The hNOGO-A chip was prepared as follows:
(§2) hNOGO (GST-human NOGO-A56) was immobilised to a CM5 chip by primary amine coupling using the Biacore Wizard program designed for targeted immobilisation levels. The CM5 sensor surface was activated by passing a solution of 50 mM N-hydroxy-succinimide (NHS) and 200 mM N-ethyl-N′-dimethylaminopropyl […] (EDC). Then hNOGO in sodium acetate buffer, pH5.0 or pH 4.5, was passed over the chip and immobilised. After immobilisation was complete any still activated esters were blocked by an injection of 1M ethanolamine hydrochloride, pH8.5.
(§3) The anti-NOGO mAbs were diluted down in HBS-EP (10 mM HEPES, pH 7.4, 150 mM NaCl, 3 mM EDTA, and 0.005% P-20 surfactant) and binding studies were carried out at range of defined antibody concentrations. All runs were referenced against a blanked sensor surface (one that had been activated and blocked as described earlier but had no addition of ligand). Analysis of binding was carried out using the BIAevaluation kinetic analysis software version 4.1. Biacore analysis of other antibodies of the invention essentially followed the same protocol as described herein.

Kd	koff	kon	Binder
12.9 nM	0.0212 s⁻¹	1.64e+06 M⁻¹ s⁻¹	B1
30.3 nM	0.047 s⁻¹	1.5e+06 M⁻¹ s⁻¹	B2
19.4 nM	0.0233 s⁻¹	1.19e+06 M⁻¹ s⁻¹	B3
21.4 nM	0.0254 s⁻¹	1.2e+06 M⁻¹ s⁻¹	B4
1.98 nM	0.00938 s⁻¹	4.8e+06 M⁻¹ s⁻¹	B5
3.55 nM	0.0134 s⁻¹	3.78e+06 M⁻¹ s⁻¹	B6

target: T1, GST-human NOGO-A56; test: SPR (Biacore 3000), GST-human NOGO-A56 on CM5 chip, antibody as analyte; mean (SD) of two experiments
Description: as §1, §2, §3

Kd	koff	kon	Binder
2.21 nM	0.00284 s⁻¹	2.17e+06 M⁻¹ s⁻¹	B7

target: T1, GST-human NOGO-A56; test: SPR (Biacore 3000), GST-human NOGO-A56 amine-coupled to CM5 chip, antibody as analyte; mean (SD) of four experiments
Description: as §1, §2, §3

Kd	koff	kon	Binder
1.82 nM	0.0061 s⁻¹	3.38e+06 M⁻¹ s⁻¹	B8

target: T1, GST-human NOGO-A56; test: SPR off-rate ranking (Biacore), CHO-K1 transfection supernatant over GST-human NOGO-A56 chip; single experiment
Description: as §2
The hNOGO chip was prepared as for kinetic analysis. Cell supernatants where taken directly from transient transfections of CHO—K1 cells. These were passed directly over the sensor surface and the interaction measured. A mock transfected cell supernatant was used for double referencing to remove any artefacts due to the tissue culture media. All runs were referenced against a blanked sensor surface (one that had been activated and blocked as described earlier but had no addition of ligand). Analysis of binding was carried out using the BIAevaluation kinetic analysis software version 4.1.

koff	Binder
0.0138 s⁻¹	B9
0.00907 s⁻¹	B10
0.0089 s⁻¹	B11
0.0106 s⁻¹	B12
0.00931 s⁻¹	B13
0.00835 s⁻¹	B14
0.0158 s⁻¹	B15
0.0457 s⁻¹	B16
0.00594 s⁻¹	B17
0.00604 s⁻¹	B18
0.00965 s⁻¹	B19
0.0114 s⁻¹	B20
0.00907 s⁻¹	B21
0.0211 s⁻¹	B22
0.0058 s⁻¹	B23

target: T1, GST-human NOGO-A56; test: SPR (Biacore 3000), GST-human NOGO-A56 on CM5 chip, antibody as analyte; single experiment; remark: another data set of the same source
Description: as §1, §2, §3

Kd	koff	kon	Binder
3.6 nM	0.00739 s⁻¹	2.05e+06 M⁻¹ s⁻¹	B11
3.6 nM	0.00869 s⁻¹	2.41e+06 M⁻¹ s⁻¹	B14
